Drawing on patent US20210380640A1, this text covers EC50 and Relative affinity (ratio of ELISA signal to cy(LLFFF)) for 34 substances.

Test [1] addresses SARS-CoV-2 spike protein (SARS-CoV-2) (UniProt P0DTC2).
The target is the same in test [2]. This is another data set of the same source.
Test [3] deals with full-length recombinant MrkA protein with an N-terminal 6xHis-SUMO-tag (MyBiosource, MBS1248970) (Klebsiella pneumoniae) (UniProt P12267). Put plainly: sandwich ELISA 3, PCC immobilised, MrkA 50 nM; reference cy(LLFFF). Background: An ELISA detects its analyte on a solid surface through an enzyme-linked reagent.
Test [4] has the same target. Put plainly: sandwich ELISA 2, PCC immobilised, MrkA 25 nM; reference cy(LLFFF).
Test [5] shares this target. Put plainly: sandwich ELISA 6, PCC immobilised, MrkA 25 nM; reference cy(LLFFF).
The target is the same in test [6]. As to the kind of experiment: sandwich ELISA 5, PCC immobilised, MrkA 25 nM; reference cy(LLFFF).
Test [7] has the same target. Put plainly: sandwich ELISA 5, PCC immobilised, MrkA 25 nM; the reference itself.
For test [8] the target is unchanged. Put plainly: sandwich ELISA, biotinylated PCC immobilised, His-SUMO-MrkA titrated (FIG. 3A).
For test [9] the target is unchanged. As to the kind of experiment: sandwich ELISA 1, PCC immobilised, [MrkA] N/A; the reference itself.
The target is the same in test [10]. As to the kind of experiment: ELISA, PCC immobilised, full-length recombinant MrkA.
For test [11] the target is unchanged. As to the kind of experiment: sandwich ELISA 2, PCC immobilised, MrkA 25 nM; the reference itself.
Test [12] shares this target. Put plainly: sandwich ELISA 3, PCC immobilised, MrkA 50 nM; the reference itself.
Test [13] shares this target. As to the kind of experiment: sandwich ELISA 6, PCC immobilised, MrkA 25 nM; the reference itself.
For test [14] the target is unchanged. As to the kind of experiment: sandwich ELISA 4, PCC immobilised, MrkA 100 nM; the reference itself.
The target is the same in test [15]. Put plainly: sandwich ELISA 4, PCC immobilised, MrkA 100 nM; reference cy(LLFFF).

Read-outs that look alike come from different tables or passages of the source.

The term EC50 denotes the concentration that produces a half-maximal response. Consider G1Gld (peptide), for which the EC50 in test [1] was determined as 4.2 nM.
Same read-out and setting: for GGarn (peptide) the value was 3.4 nM.
In test [2], aakrG (peptide) came in with an EC50 of 16.4 nM.
For andkd (peptide), in [1], the EC50 amounted to 4.2 nM.
The substance avtr (peptide) had an EC50 in test [2] of 3.4 nM.
With cy(AAFFF) (peptide), the Relative affinity (ratio of ELISA signal to cy(LLFFF)) in test [3] came out at 0.15.
As to cy(ALFFF) (peptide), the Relative affinity (ratio of ELISA signal to cy(LLFFF)) in test [4] was found to be 0.53.
On to cy(DLFFF) (peptide), for which, in test [5], the Relative affinity (ratio of ELISA signal to cy(LLFFF)) was determined as 0.21.
Still for that read-out and setting: for cy(HLFFF) (peptide) the value was 0.81.
For cy(LAFFF) (peptide), the Relative affinity (ratio of ELISA signal to cy(LLFFF)) in [4] came to 0.26.
On the same count and under the same terms, for cy(LLAFF) (peptide) the value was 0.59; for cy(LLFAF) (peptide), 0.1.
Same read-out and setting: the same measure for cy(LLFFA) (peptide): 0.04.
For cy(LLFFF)+R3 (peptide), the Relative affinity (ratio of ELISA signal to cy(LLFFF)) in test [6] was 0.9.
On the same count and under the same terms, the same measure for cy(LLFFF)+R6 (peptide): 1.22; for cy(LLFFF)+R9 (peptide): 0.58.
Take cy(LLFFF), biotinylated (peptide): the Relative affinity (ratio of ELISA signal to cy(LLFFF)) in test [7], in test [9], in test [11], in [12], in test [13] and in test [14] was 1 each time. Further, the EC50 in test [8] was 50 nM; in test [10], 230 nM.
For cy(TTFFF) (peptide), in test [15], the Relative affinity (ratio of ELISA signal to cy(LLFFF)) was 0.04.
Regarding dpvtd (peptide), in test [1], the EC50 worked out at 4.1 nM.
In the case of dyGvd (peptide), the EC50 in test [2] was 2.9 nM.
On to dynGp (peptide), for which the EC50 in test [2] was 2.9 nM.
Substance edlvk (peptide) came in with an EC50 in test [2] of 4.3 nM.
Same read-out and setting: for eprnn (peptide) the value was 11 nM; for fdtta (peptide), 3.2 nM.
The same measure, in the same setting: the same measure for nkvyG (peptide): 4.4 nM.
The substance nnpdh (peptide) yielded an EC50 in [1] of 3.8 nM.
On the same count and under the same terms, for sdyre (peptide) the value was 4.2 nM.
Consider senfd (peptide), for which the EC50 in [2] came out at 3.8 nM.
The same measure, in the same setting: for skdfd (peptide) the value was 3.2 nM; for skevd (peptide), 4.6 nM.
In the case of tGarn (peptide), the concentration giving a half-maximal response (EC50) in test [1] is 3.1 nM.
Turning to tsthG (peptide), the EC50 in test [2] is 3.6 nM.
In turn, ydrsd (peptide) came in with an EC50 in [1] of 4.2 nM.
As for ykdld (peptide), the EC50 in test [2] is 4 nM.
